Measurements published in PMC10540216, “Activity Guided Azide-methyllysine Photo-trapping for Substrate Profiling of Lysine Demethylases” (Journal of the American Chemical Society, 2023).

B1: NU155_HUMAN (protein, UniProt O75694 2-1391, looked up)
Nuclear pore complex protein …: PSSLLGAAMPASTSAAALQEALENAGRLIDRQLQEDRMYPDLSELLMVSAPNNPTVSGMSDMDYPLQGPGLLSVPNLPEISSIRRVPLPPELVEQFGHMQCNCMMGVFPPISRAWLTIDSDIFMWNYEDGGDLAYFDGLSETILAVGLVKPKAGIFQPHVRHLLVLATPVDIVILGLSYANLQTGSGVLNDSLSGGMQLLPDPLYSLPTDNTYLLTITSTDNGRIFLAGKDGCLYEVAYQAEAGWFSQRCRKINHSKSSLSFLVPSLLQFTFSEDDPILQIAIDNSRNILYTRSEKGVIQVYDLGQDGQGMSRVASVSQNAIVSAAGNIARTIDRSVFKPIVQIAVIENSESLDCQLLAVTHAGVRLYFSTCPFRQPLARPNTLTLVHVRLPPGFSASSTVEKPSKVHRALYSKGILLMAASENEDNDILWCVNHDTFPFQKPMMETQMTAGVDGHSWALSAIDELKVDKIITPLNKDHIPITDSPVVVQQHMLPPKKFVLLSAQGSLMFHKLRPVDQLRHLLVSNVGGDGEEIERFFKLHQEDQACATCLILACSTAACDREVSAWATRAFFRYGGEAQMRFPTTLPPPSNVGPILGSPVYSSSPVPSGSPYPNPSFLGTPSHGIQPPAMSTPVCALGNPATQATNMSCVTGPEIVYSGKHNGICIYFSRIMGNIWDASLVVERIFKSGNREITAIESSVPCQLLESVLQELKGLQEFLDRNSQFAGGPLGNPNTTAKVQQRLIGFMRPENGNPQQMQQELQRKFHEAQLSEKISLQAIQQLVRKSYQALALWKLLCEHQFTIIVAELQKELQEQLKITTFKDLVIRDKELTGALIASLINCYIRDNAAVDGISLHLQDICPLLYSTDDAICSKANELLQRSRQVQNKTEKERMLRESLKEYQKISNQVDLSNVCAQYRQVRFYEGVVELSLTAAEKKDPQGLGLHFYKHGEPEEDIVGLQAFQERLNSYKCITDTLQELVNQSKAAPQSPSVPKKPGPPVLSSDPNMLSNEEAGHHFEQMLKLSQRSKDELFSIALYNWLIQVDLADKLLQVASPFLEPHLVRMAKVDQNRVRYMDLLWRYYEKNRSFSNAARVLSRLADMHSTEISLQQRLEYIARAILSAKSSTAISSIAADGEFLHELEEKMEVARIQLQIQETLQRQYSHHSSVQDAVSQLDSELMDITKLYGEFADPFKLAECKLAIIHCAGYSDPILVQTLWQDIIEKELSDSVTLSSSDRMHALSLKIVLLGKIYAGTPRFFPLDFIVQFLEQQVCTLNWDVGFVIQTMNEIGVPLPRLLEVYDQLFKSRDPFWNRMKKPLHLLDCIHVLLIRYVENPSQVLNCERRRFTNLCLDAVCGYLVELQSMSSSVAVQAITGNFKSLQAKLERLH
B2: ROCK1_HUMAN (protein, UniProt Q13464 2-1354, looked up)
Rho-associated protein kinase …: STGDSFETRFEKMDNLLRDPKSEVNSDCLLDGLDALVYDLDFPALRKNKNIDNFLSRYKDTINKIRDLRMKAEDYEVVKVIGRGAFGEVQLVRHKSTRKVYAMKLLSKFEMIKRSDSAFFWEERDIMAFANSPWVVQLFYAFQDDRYLYMVMEYMPGGDLVNLMSNYDVPEKWARFYTAEVVLALDAIHSMGFIHRDVKPDNMLLDKSGHLKLADFGTCMKMNKEGMVRCDTAVGTPDYISPEVLKSQGGDGYYGRECDWWSVGVFLYEMLVGDTPFYADSLVGTYSKIMNHKNSLTFPDDNDISKEAKNLICAFLTDREVRLGRNGVEEIKRHLFFKNDQWAWETLRDTVAPVVPDLSSDIDTSNFDDLEEDKGEEETFPIPKAFVGNQLPFVGFTYYSNRRYLSSANPNDNRTSSNADKSLQESLQKTIYKLEEQLHNEMQLKDEMEQKCRTSNIKLDKIMKELDEEGNQRRNLESTVSQIEKEKMLLQHRINEYQRKAEQENEKRRNVENEVSTLKDQLEDLKKVSQNSQLANEKLSQLQKQLEEANDLLRTESDTAVRLRKSHTEMSKSISQLESLNRELQERNRILENSKSQTDKDYYQLQAILEAERRDRGHDSEMIGDLQARITSLQEEVKHLKHNLEKVEGERKEAQDMLNHSEKEKNNLEIDLNYKLKSLQQRLEQEVNEHKVTKARLTDKHQSIEEAKSVAMCEMEKKLKEEREAREKAENRVVQIEKQCSMLDVDLKQSQQKLEHLTGNKERMEDEVKNLTLQLEQESNKRLLLQNELKTQAFEADNLKGLEKQMKQEINTLLEAKRLLEFELAQLTKQYRGNEGQMRELQDQLEAEQYFSTLYKTQVKELKEEIEEKNRENLKKIQELQNEKETLATQLDLAETKAESEQLARGLLEEQYFELTQESKKAASRNRQEITDKDHTVSRLEEANSMLTKDIEILRRENEELTEKMKKAEEEYKLEKEEEISNLKAAFEKNINTERTLKTQAVNKLAEIMNRKDFKIDRKKANTQDLRKKEKENRKLQLELNQEREKFNQMVVKHQKELNDMQAQLVEECAHRNELQMQLASKESDIEQLRAKLLDLSDSTSVASFPSADETDGNLPESRIEGWLSVPNRGNIKRYGWKKQYVVVSSKKILFYNDEQDKEQSNPSMVLDIDKLFHVRPVTQGDVYRAETEEIPKIFQILYANEGECRKDVEMEPVQQAEKTNFQNHKGHEFIPTLYHFPANCDACAKPLWHVFKPPPALECRRCHVKCHRDHLDKKEDLICPCKVSYDVTSARDMLLLACSQDEQKKWVTHLVKKIPKNPPSGFVRASPRTLSTRSTANQSFRKVVKNTSGKTS
B3: PR40A_HUMAN (protein, UniProt O75400 1-957, looked up)
Pre-mRNA-processing factor 40 …: MRPGTGAERGGLMVSEMESHPPSQGPGDGERRLSGSSLCSGSWVSADGFLRRRPSMGHPGMHYAPMGMHPMGQRANMPPVPHGMMPQMMPPMGGPPMGQMPGMMSSVMPGMMMSHMSQASMQPALPPGVNSMDVAAGTASGAKSMWTEHKSPDGRTYYYNTETKQSTWEKPDDLKTPAEQLLSKCPWKEYKSDSGKPYYYNSQTKESRWAKPKELEDLEGYQNTIVAGSLITKSNLHAMIKAEESSKQEECTTTSTAPVPTTEIPTTMSTMAAAEAAAAVVAAAAAAAAAAAAANANASTSASNTVSGTVPVVPEPEVTSIVATVVDNENTVTISTEEQAQLTSTPAIQDQSVEVSSNTGEETSKQETVADFTPKKEEEESQPAKKTYTWNTKEEAKQAFKELLKEKRVPSNASWEQAMKMIINDPRYSALAKLSEKKQAFNAYKVQTEKEEKEEARSKYKEAKESFQRFLENHEKMTSTTRYKKAEQMFGEMEVWNAISERDRLEIYEDVLFFLSKKEKEQAKQLRKRNWEALKNILDNMANVTYSTTWSEAQQYLMDNPTFAEDEELQNMDKEDALICFEEHIRALEKEEEEEKQKSLLRERRRQRKNRESFQIFLDELHEHGQLHSMSSWMELYPTISSDIRFTNMLGQPGSTALDLFKFYVEDLKARYHDEKKIIKDILKDKGFVVEVNTTFEDFVAIISSTKRSTTLDAGNIKLAFNSLLEKAEAREREREKEEARKMKRKESAFKSMLKQAAPPIELDAVWEDIRERFVKEPAFEDITLESERKRIFKDFMHVLEHECQHHHSKNKKHSKKSKKHHRKRSRSRSGSDSDDDDSHSKKKRQRSESRSASEHSSSAESERSYKKSKKHKKKSKKRRHKSDSPESDAEREKDKKEKDRESEKDRTRQRSESKHKSPKKKTGKDSGNWDTSGSELSEGELEKRRRTLLEQLDDDQ
B4: SRRT_HUMAN (protein, UniProt Q9BXP5 2-876, looked up)
Serrate RNA effector molecule …: GDSDDEYDRRRRDKFRRERSDYDRSRERDERRRGDDWNDREWDRGRERRSRGEYRDYDRNRRERFSPPRHELSPPQKRMRRDWDEHSSDPYHSGYEMPYAGGGGGPTYGPPQPWGHPDVHIMQHHVLPIQARLGSIAEIDLGVPPPVMKTFKEFLLSLDDSVDETEAVKRYNDYKLDFRRQQMQDFFLAHKDEEWFRSKYHPDEVGKRRQEARGALQNRLRVFLSLMETGWFDNLLLDIDKADAIVKMLDAAVIKMEGGTENDLRILEQEEEEEQAGKPGEPSKKEEGRAGAGLGDGERKTNDKDEKKEDGKQAENDSSNDDKTKKSEGDGDKEEKKEDSEKEAKKSSKKRNRKHSGDDSFDEGSVSESESESESGQAEEEKEEAEEALKEKEKPKEEEWEKPKDAAGLECKPRPLHKTCSLFMRNIAPNISRAEIISLCKRYPGFMRVALSEPQPERRFFRRGWVTFDRSVNIKEICWNLQNIRLRECELSPGVNRDLTRRVRNINGITQHKQIVRNDIKLAAKLIHTLDDRTQLWASEPGTPPLPTSLPSQNPILKNITDYLIEEVSAEEEELLGSSGGAPPEEPPKEGNPAEINVERDEKLIKVLDKLLLYLRIVHSLDYYNTCEYPNEDEMPNRCGIIHVRGPMPPNRISHGEVLEWQKTFEEKLTPLLSVRESLSEEEAQKMGRKDPEQEVEKFVTSNTQELGKDKWLCPLSGKKFKGPEFVRKHIFNKHAEKIEEVKKEVAFFNNFLTDAKRPALPEIKPAQPPGPAQILPPGLTPGLPYPHQTPQGLMPYGQPRPPILGYGAGAVRPAVPTGGPPYPHAPYGAGRGNYDAFRGQGGYPGKPRNRMVRGDPRAIVEYRDLDAPDDVDFF

What follows are molecules tested on KDM4A-I71AzF (assay: CASI: photo-crosslinking with HEK293T cell extracts, StrepTactin enrichment and LC-MS/MS proteomics). Conditions: sheet "Final results but with 0.01".
Format: binding, human
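Also: lysates from HEK293T cells pretreated with a KDM4 inhibitor to raise proteome methylation, affinity-purified after ±UV, gel-resolved, trypsin-digested, with exclusive unique peptides per protein averaged per condition.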

In order of rising “Fold change (+UV/-UV)” value:
1. B2  0
2. B3  0.5
3. B4  0.5385
4. B1  1.36
